Our source for the percent quench of the peptide's fluorescence values is paper PMC2917394.

In the assay the target is Fluorescein-labeled CD4 tail peptide (residue 403-419). Nature of the assay: other fluorescence titration; 1.0 uM fluorescein-labeled CD4 tail peptide in PBS, stirred cuvette, 25 C, 30 min incubation with Nef-His proteins at 0.01 to 10 uM in 0.5 ml; quenching of emission (excitation 492 nm, emission 516 nm) as percent reduction, average of three measurements.

Substance “Nef (C55/A)-His, untreated (natural protein)” returned a percent quench of the peptide's fluorescence at 10 uM Nef-His of 10.6%.

With “Nef (wt)-His, unmodified (natural protein)”, the percent quench of the peptide's fluorescence at 10 uM Nef-His amounted to 11.6%.

TPCK-modified Nef-His (natural protein) yielded a percent quench of the peptide's fluorescence at 10 uM Nef-His of 4.9%.

The substance “TPCK-treated Nef (C55/A)-His (natural protein)” displayed a percent quench of the peptide's fluorescence at 10 uM Nef-His of 9.8%.
